Assay results taken from patent US20240002497A1 (Merck Sharp & Dohme, published 2024).

Columns and labels:
[1] = target: T1, huNav1.7α+β1 (human, UniProt Q15858 1-1988; Q07699 19-218); experiment: cell-based or functional assay
[2] = target: T2, rhNav1.7α+β1-β2-β3 (rhesus monkey α subunit with human β …); experiment: cell-based or functional assay
[3] = target: T3, huNav1.7α (human, UniProt Q15858 1-1988); experiment: binding FACS, HEKa cells
T3 construct: HEK cells expressing the α subunit alone; also called HEKa; HEK huNav1.7α

[4] = target: T1, huNav1.7α+β1; experiment: binding FACS, HEKa/β1 cells
[5] = target: T2, rhNav1.7α+β1-β2-β3; experiment: binding FACS, CHO FlpIn cells
[6] = target: T3, huNav1.7α; experiment: cell-based or functional assay
[7] = target: rhNav1.7α (rhesus monkey, UniProt Q15858 1-1988 (human entry)); experiment: cell-based or functional assay
[8] = target: T4, huNav1.7α + β1-β2-β3 (human Nav1.7α co-expressed with human Navβ1, Navβ2 and Navβ3 on cells) (human); experiment: binding FACS, CHO FlpIn cells
T4 construct: also called huNav1.7-beta1-beta2-beta3; CHO FlpIn huNav1.7α + β1-β2-β3
Method in brief: (§1)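 Flow cytometry read-out of anti-Flag signal on propidium iodide-negative cells measured ISVD binding. Purified FLAG3-tagged ISVD, diluted in PBS with 10% FBS and NaN₃, was applied to the cells for 30 minutes at 4° C.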

[9] = target: T5, rhNav1.7α + β1-β2-β3 (rhesus Nav1.7α co-expressed with Navβ1, Navβ2 and Navβ3 on cells) (rhesus monkey (α subunit); β subunits …); experiment: binding FACS, CHO FlpIn cells
T5 construct: also called rhNav1.7-beta1-beta2-beta3; CHO FlpIn rhNav1.7α + β1-β2-β3
Method in brief: as §1

[10] = target: T6, huNav1.7α on HEK cells (without β subunits) (human, UniProt Q15858 1-1988); experiment: binding FACS, HEK cells (HEKa)
T6 construct: also called HEKa huNav1.7α

[11] = target: huNav1.7α + β1 on HEK cells (human, UniProt Q15858 1-1988; Q07699 19-218); experiment: binding FACS, HEK cells (HEKa/b1)

| single pulse IC50 [1] [nM] | single pulse IC50 [2] [nM] | EC50 [3] [nM] | EC50 [4] [nM] | EC50 [5] [nM] | 2-pulse IC50 [M], P1 [6] [M] | 2-pulse IC50 [M], P2 [6] [M] | 2-pulse IC50 [M], P1 [7] [M] | 2-pulse IC50 [M], P2 [7] [M] | EC50 [8] [nM] | EC50 [9] [nM] | EC50 [10] [nM] | EC50 [11] [nM] | Binder |
| --- | --- | --- | --- | --- | --- | --- | --- | --- | --- | --- | --- | --- | --- |
| 320 | 58 | 69 | 68 | 20 | – | – | – | – | – | – | – | – | F010300948 (VHH, vs F0103275B05: S27P, I28V, S33R, N53P, N93R, A94W, T101I) VHH: EVQLVESGGGLVQPGGSLRLSCAASGPVFNINRMAWYRRAPGKQRELVASSTPGGSTNYADSVKGRFTISRDNAKRVYLQMNSLTPEDTAVYYCRWLLQPSIYDISRIYWGQGTLVTVSS |
| 250 | 100 | 4.3 | 65 | 38 | – | – | – | – | – | – | – | – | F010300990 (VHH, vs F0103275B05: S27P, I28V, S33R, S50Y, N53P, T101I) VHH: EVQLVESGGGLVQPGGSLRLSCAASGPVFNINRMAWYRRAPGKQRELVAYSTPGGSTNYADSVKGRFTISRDNAKRVYLQMNSLTPEDTAVYYCNALLQPSIYDISRIYWGQGTLVTVSS |
| 73 | 170 | – | – | 45 | 1e-06 | 8e-07 | 2e-06 | 8e-07 | – | – | – | – | F010300631 (VHH, vs F0103275B05: S27P, I28V, S50Y, N53P, N93R) VHH: EVQLVESGGGLVQPGGSLRLSCAASGPVFNINSMAWYRRAPGKQRELVAYSTPGGSTNYADSVKGRFTISRDNAKRVYLQMNSLTPEDTAVYYCRALLQPSIYDISRTYWGQGTLVTVSS |
| 85 | 180 | 9.7 | 27 | 55 | 1e-06 | 8e-07 | 1e-06 | 7e-07 | – | – | – | – | F010300659 (VHH, also called F0103275B05(S27P, I28V, S50Y, N53P, G55W, S56D, T57W, N93R, A94W)+FLAG3-HIS6) VHH: EVQLVESGGGLVQPGGSLRLSCAASGPVFNINSMAWYRRAPGKQRELVAYSTPGWDWNYADSVKGRFTISRDNAKRVYLQMNSLTPEDTAVYYCRWLLQPSIYDISRTYWGQGTLVTVSS |
| – | – | – | – | – | – | – | – | – | 36 | 16 | 15 | 29 | F010301653 (VHH, also called F0103275B05(L11V, S33R, S50Y, S56D, T83R, V89L, N93R)) VHH: EVQLVESGGGVVQPGGSLRLSCAASGSIFNINRMAWYRRAPGKQRELVAYSTNGGDTNYADSVKGRFTISRDNAKRVYLQMNSLRPEDTALYYCRALLQPSIYDISRTYWGQGTLVTVSS |
| 27 | 120 | 15 | 44 | 26 | – | – | – | – | – | – | – | – | F010300880 (VHH, vs F0103275B05: S27P, I28V, S33R, N53P, S56D, N93R, A94W) VHH: EVQLVESGGGLVQPGGSLRLSCAASGPVFNINRMAWYRRAPGKQRELVASSTPGGDTNYADSVKGRFTISRDNAKRVYLQMNSLTPEDTAVYYCRWLLQPSIYDISRTYWGQGTLVTVSS |
| 200 | 210 | – | – | 50 | 2e-06 | 2e-06 | 7e-06 | 1e-06 | – | – | – | – | F010300684 (VHH, vs F0103275B05: S27P, I28V, I31W, N53P, N93R, T101I) VHH: EVQLVESGGGLVQPGGSLRLSCAASGPVFNWNSMAWYRRAPGKQRELVASSTPGGSTNYADSVKGRFTISRDNAKRVYLQMNSLTPEDTAVYYCRALLQPSIYDISRIYWGQGTLVTVSS |
| – | – | – | – | – | – | – | – | – | 32 | 18 | 18 | 25 | F010301654 (VHH, also called F0103275B05(L11V, S33R, R39Q, S50Y, S56D, T83R, V89L, N93R)) VHH: EVQLVESGGGVVQPGGSLRLSCAASGSIFNINRMAWYRQAPGKQRELVAYSTNGGDTNYADSVKGRFTISRDNAKRVYLQMNSLRPEDTALYYCRALLQPSIYDISRTYWGQGTLVTVSS |
| – | – | – | – | – | – | – | – | – | 46 | 26 | 19 | 28 | F010301655 (VHH, also called F0103275B05(L11V, S33R, R39Q, S50Y, S56D, R76N, T83R, V89L, N93R)) VHH: EVQLVESGGGVVQPGGSLRLSCAASGSIFNINRMAWYRQAPGKQRELVAYSTNGGDTNYADSVKGRFTISRDNAKNVYLQMNSLRPEDTALYYCRALLQPSIYDISRTYWGQGTLVTVSS |
